Data as given in patent publication US20240216557A1 (Memorial Sloan Kettering, published 2024).

T1: DLL3 on H82 xenograft tumor cells (UniProt Q9NYJ7 27-618, limits assumed)
T1 construct: whole, on cells; H82 is a human SCLC line by general knowledge
T1 sequence (looked up): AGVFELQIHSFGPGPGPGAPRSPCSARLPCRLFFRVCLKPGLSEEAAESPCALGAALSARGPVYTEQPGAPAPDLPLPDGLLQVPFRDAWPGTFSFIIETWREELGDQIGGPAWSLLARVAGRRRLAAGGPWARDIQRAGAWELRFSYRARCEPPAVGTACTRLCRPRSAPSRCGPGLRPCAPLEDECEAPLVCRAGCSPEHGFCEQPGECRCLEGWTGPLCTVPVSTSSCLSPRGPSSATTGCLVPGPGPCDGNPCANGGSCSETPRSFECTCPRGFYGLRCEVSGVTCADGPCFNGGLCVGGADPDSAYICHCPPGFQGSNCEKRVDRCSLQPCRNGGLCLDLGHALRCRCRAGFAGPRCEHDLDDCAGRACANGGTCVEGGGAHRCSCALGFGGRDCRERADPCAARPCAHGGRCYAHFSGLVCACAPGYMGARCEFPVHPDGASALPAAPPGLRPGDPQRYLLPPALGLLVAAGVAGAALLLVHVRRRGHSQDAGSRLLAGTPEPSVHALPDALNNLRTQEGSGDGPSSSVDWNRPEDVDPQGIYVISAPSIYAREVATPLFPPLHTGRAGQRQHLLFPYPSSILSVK


Experiments:
[1] = biological target: T1, DLL3 on H82 xenograft tumor cells; experiment: immunoPET imaging of athymic mice bearing right flank subcutaneous H82 xenografts after tail vein injection of the Zr-89 labelled antibody; time point not printed on the sheet
Description: (§1) To ensure adequate binding to DLL3 in vivo, the three antibodies were first bioconjugated to p-SCN-Bn-DFO chelators and then radiolabeled with Zr-89 for injection via tail vein into athymic female mice bearing right flank subcutaneous H82 xenografts (250-300 Ci, 30 μg). ImmunoPET imaging was performed every 24 h until 120 h, when a terminal ex vivo biodistribution study was performed.

[2] = biological target: T1, DLL3 on H82 xenograft tumor cells; experiment: immunoPET and ex vivo biodistribution of the Zr-89 labeled antibody in mice with H82 xenografts
Description: as §1

Row | binding result [1] | binding result [2] | Binder
1 | binds |  | [89Zr]Zr-DFO-J8 antibody (antibody, V domains shown, p-SCN-Bn-DFO chelator bioconjugated to the antibody (sites not given), radiolabeled with Zr-89, also called J8 (monoclonal IgG4, DFO-conjugated, Zr-89 labeled)) VH: QVHLVQSGAEVKKPGASVKVSCKASGYTFTIYYIHWVRQAPGQGLEWMGIINPSGGSTSYAQKFQGRVTMTRDTSTSTVYMELSSLRSEDTAVYYCSGNDYVDYVTTDYYGMDVWGQGTTVTVSS VL: DIQMTQSPSSLSASVGDRVTITCRASQGISNYLAWFQQKPGKAPKSLIYAASSLQSGVPSKFSGSGSGTDFTLTISSLQPEDFATYYCQQYNSSPYTFGQGTKLEIK
2 |  | binds | E9 monoclonal IgG4 antibody bioconjugated to p-SCN-Bn-DFO and radiolabeled with Zr-89 (antibody, V domains shown, p-SCN-Bn-DFO chelator bioconjugated to the antibody (sites not given), radiolabeled with Zr-89) VH: QVQLVQSGAEVKKPGASVKVSCKASGYTFTSYYMHWVRQAPGQGLEWMGVINSSGGSTSYAQKFQGRVTMTRDTSTSTVYMDLSSLRSEDTAVYYCARGYCTNGVYYDEDFDYWGQGTLVTVSS VL: DIQMTQSPSSLSASVGDRVTITCRASQGISHYLAWFQQKPGKAPTSLIYAASSLQSGVPSKFSGSGSGTDFTLTISSLQPEDFATYYCQQYNSYPLTFGGGTKVEIK
